Experimental data reported in patent publication US10005829B2, “Synthetic linear apelin mimetics for the treatment of heart failure” (priority 2012, dated 2018).
Where a SMILES comes first, the peptide text is derived from it. [ ]: non-standard residue; d: D form. The star is where a group is joined. Pro(trans-4-Ph) = O=C(O)[C@@H]1C[C@@H](c2ccccc2)CN1; Cha = N[C@@H](CC1CCCCC1)C(=O)O; pGlu = O=C1CC[C@@H](C(=O)O)N1; dNle = CCCC[C@@H](N)C(=O)O; dNva = CCC[C@@H](N)C(=O)O; Bn = c1ccc(C*)cc1

T1: APJ receptor (human, UniProt P35414 1-380)
T1 sequence (looked up): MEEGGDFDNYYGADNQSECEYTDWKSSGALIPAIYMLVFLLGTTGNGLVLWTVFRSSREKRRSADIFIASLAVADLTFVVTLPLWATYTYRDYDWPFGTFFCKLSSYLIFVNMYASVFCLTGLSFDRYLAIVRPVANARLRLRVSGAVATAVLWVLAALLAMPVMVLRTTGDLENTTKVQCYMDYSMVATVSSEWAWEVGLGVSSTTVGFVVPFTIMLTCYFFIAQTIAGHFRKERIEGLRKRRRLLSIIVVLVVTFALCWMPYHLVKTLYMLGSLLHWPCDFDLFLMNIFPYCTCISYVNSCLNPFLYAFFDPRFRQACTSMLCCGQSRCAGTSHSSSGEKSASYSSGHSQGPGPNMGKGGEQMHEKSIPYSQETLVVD


What was measured:
[1] = Surrogate activity-based plasma stability assay; format: in vitro ADME; details: 5% rat plasma, 37° C., EC50 at t0 and t24 hrs; Table 2
Method: • Stability assay: stability half-life, (t ½), values were determined by converting peak areas at each time point to percent remaining relative to initial (t=0) peak area. Percent remaining=100×(sample peak area)÷(t=0 peak area) • The natural log of percent remaining values were calculated and plotted against sample time (Microsoft Excel). The slope of this line, k, was determined by linear regression (Microsoft Excel). • Stability half-life was then calculated by the formula, t ½=0.693÷k Surrogate Activity-based Plasma Stability Assay:
The calcium flux protocol described above was followed, with the following changes. The peptides were also incubated with 5% rat plasma (Bioreclamation # [sequence]-M, Na Heparin-treated). Readings were taken at time points t0 and t24 hrs, after incubation in a 37° C. tissue culture incubator. Peptide plasma half-life in minutes was estimated by calculating the following:

APJ receptor = molecular target: T1, APJ receptor; assay: cell-based or functional assay

Row | Molecule | Surrogate activity-based Plasma stability t½ [1] [h] | hAPJ Ca^2+ Flux EC50 (APJ receptor) [nM]
1 | CCCC[C@@H](NC(=O)[C@@H]1CCCN1C(=O)CNC(=O)[C@H](CCCCN)NC(=O)[C@H](Cc1c[nH]cn1)NC(=O)[C@@H](C)NC(=O)[C@H](Cc1ccc(OCc2ccccc2)cc1)NC(=O)[C@H](CCCNC(=N)N)NC(=O)[C@@H]1CCCN1C(=O)[C@H](CCCNC(=N)N)NC(=O)[C@@H]1CCC(=O)N1)C(=O)N[C@H](C)C(=O)N[C@H](Cc1ccccc1)C(=O)O [Example 27, pE-R-P-R-Y(Bzl)-a-H-K-G-P-nle-a-f-OH] ([pGlu]RPRY(Bn)[dA]HKGP[dNle][dA][dF]-OH) | 5.815 | –
2 | [pGlu]R[Pro(trans-4-Ph)]RL[dA]HKGP[dNle][dA][dF]-OH [pE-R-(trans-4-PhP)-R-L-a-H-K-G-P-nle-a-f-OH] | – | 9.9
3 | [pGlu]RPRL[dV]HKGP[dNle][dA][dF]-OH (SMILES CCCC[C@@H](NC(=O)[C@@H]1CCCN1C(=O)CNC(=O)[C@H](CCCCN)NC(=O)[C@H](Cc1c[nH]cn1)NC(=O)[C@H](NC(=O)[C@H](CC(C)C)NC(=O)[C@H](CCCNC(=N)N)NC(=O)[C@@H]1CCCN1C(=O)[C@H](CCCNC(=N)N)NC(=O)[C@@H]1CCC(=O)N1)C(C)C)C(=O)N[C@H](C)C(=O)N[C@H](Cc1ccccc1)C(=O)O) [pE-R-P-R-L-v-H-K-G-P-nle-a-f-OH] | – | 7.9
4 | [pGlu]RPRL[dCys(tBu)]HKGP[dNle][dA][dF]-OH [pE-R-P-R-L-c(tBu)-H-K-G-P-nle-a-f-OH] | – | 693
5 | [pGlu]RPRL[dA]HEGP[dNle][dA][dF]-OH (SMILES CCCC[C@@H](NC(=O)[C@@H]1CCCN1C(=O)CNC(=O)[C@H](CCC(=O)O)NC(=O)[C@H](Cc1c[nH]cn1)NC(=O)[C@@H](C)NC(=O)[C@H](CC(C)C)NC(=O)[C@H](CCCNC(=N)N)NC(=O)[C@@H]1CCCN1C(=O)[C@H](CCCNC(=N)N)NC(=O)[C@@H]1CCC(=O)N1)C(=O)N[C@H](C)C(=O)N[C@H](Cc1ccccc1)C(=O)O) [pE-R-P-R-L-a-H-E-G-P-nle-a-f-OH] | – | 200
6 | [pGlu]RPRL[dD]HKGP[dNle][dA][dF]-OH (SMILES CCCC[C@@H](NC(=O)[C@@H]1CCCN1C(=O)CNC(=O)[C@H](CCCCN)NC(=O)[C@H](Cc1c[nH]cn1)NC(=O)[C@@H](CC(=O)O)NC(=O)[C@H](CC(C)C)NC(=O)[C@H](CCCNC(=N)N)NC(=O)[C@@H]1CCCN1C(=O)[C@H](CCCNC(=N)N)NC(=O)[C@@H]1CCC(=O)N1)C(=O)N[C@H](C)C(=O)N[C@H](Cc1ccccc1)C(=O)O) [pE-R-P-R-L-d-H-K-G-P-nle-a-f-OH] | – | 7.7
7 | [pGlu]RPR[Cha][dNva]HKGP[dNle][dA][dF]-OH (SMILES CCCC[C@@H](NC(=O)[C@@H]1CCCN1C(=O)CNC(=O)[C@H](CCCCN)NC(=O)[C@H](Cc1c[nH]cn1)NC(=O)[C@@H](CCC)NC(=O)[C@H](CC1CCCCC1)NC(=O)[C@H](CCCNC(=N)N)NC(=O)[C@@H]1CCCN1C(=O)[C@H](CCCNC(=N)N)NC(=O)[C@@H]1CCC(=O)N1)C(=O)N[C@H](C)C(=O)N[C@H](Cc1ccccc1)C(=O)O) [pE-R-P-R-Cha-nva-H-K-G-P-nle-a-f-OH] | – | 9.4
8 | [pGlu]RPRL[dA]HKDP[dNle][dA][dF]-OH (SMILES CCCC[C@@H](NC(=O)[C@@H]1CCCN1C(=O)[C@H](CC(=O)O)NC(=O)[C@H](CCCCN)NC(=O)[C@H](Cc1c[nH]cn1)NC(=O)[C@@H](C)NC(=O)[C@H](CC(C)C)NC(=O)[C@H](CCCNC(=N)N)NC(=O)[C@@H]1CCCN1C(=O)[C@H](CCCNC(=N)N)NC(=O)[C@@H]1CCC(=O)N1)C(=O)N[C@H](C)C(=O)N[C@H](Cc1ccccc1)C(=O)O) [pE-R-P-R-L-a-H-K-D-P-nle-a-f-OH] | – | 95.9
